Data reported in patent publication US20210269525A1 (BIOCYTOGEN PHARMACEUTICALS BEIJING, published 2021).

B1: 10A4-H1K1-IgG1-LALA (antibody, V domains shown)
VH: QVQLVQSGAEVKKPGASVKVSCKASGYTFTSYYIHWVRQAPGQRLEFIGWIYPGNVNAKYNEKFKGRVTITTDKSASTAYMELSSLRSEDTAVYYCAIKGGNYDWGQGTLVTVSS
VL: DVVMTQSPLSLPVTLGQPASISCQSSQSLLDSDGKTYLNWLQQRPGQSPRRLIYLVSKLGSGVPDRFSGSGSGTDFTLKISRVEAEDVGVYYCWQGTHFPRTFGGGTKVEIK
notes: Humanized; human IgG1 with LALA mutations; also called H1K1 (humanized 10A4)
B2: 10A4-H1K3-IgG1-LALA (antibody, V domains shown)
VH: QVQLVQSGAEVKKPGASVKVSCKASGYTFTSYYIHWVRQAPGQRLEFIGWIYPGNVNAKYNEKFKGRVTITTDKSASTAYMELSSLRSEDTAVYYCAIKGGNYDWGQGTLVTVSS
VL: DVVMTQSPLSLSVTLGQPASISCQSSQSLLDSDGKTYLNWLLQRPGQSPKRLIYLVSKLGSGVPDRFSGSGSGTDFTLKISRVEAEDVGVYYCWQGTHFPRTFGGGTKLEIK
notes: Humanized; human IgG1 with LALA mutations; also called H1K3 (humanized 10A4)
B3: 10A4-H2K3-IgG1-LALA (antibody, V domains shown)
VH: QVQLVQSGAEVKKPGASVKISCKASGYTFTSYYIHWVRQAPGQRLEFIGWIYPGNVNAKYNEKFKGRATITTDKSASTAYMELSSLRSEDTAVYYCAIKGGNYDWGQGTLVTVSS
VL: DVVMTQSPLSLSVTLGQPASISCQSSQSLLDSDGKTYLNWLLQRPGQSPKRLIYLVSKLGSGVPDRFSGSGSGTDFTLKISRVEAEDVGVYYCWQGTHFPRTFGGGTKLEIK
notes: Humanized; human IgG1 with LALA mutations; also called H2K3 (humanized 10A4)
B4: 10A4-H4K3-IgG1-LALA (antibody, V domains shown)
VH: QVQLQQSGAEVKKPGASVRISCKASGYTFTSYYIHWVRQRPGQGLEFIGWIYPGNVNAKYNEKFKGRATLTTDKSASTAYMELSSLRSEDTAVYFCAIKGGNYDWGQGTLVTVSS
VL: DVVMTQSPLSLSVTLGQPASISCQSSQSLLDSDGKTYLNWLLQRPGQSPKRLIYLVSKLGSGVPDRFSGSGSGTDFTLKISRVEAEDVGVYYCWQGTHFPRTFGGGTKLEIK
notes: Humanized; human IgG1 with LALA mutations; also called H4K3 (humanized 10A4)
B5: 10A4-H4K2-IgG1-LALA (antibody, V domains shown)
VH: QVQLQQSGAEVKKPGASVRISCKASGYTFTSYYIHWVRQRPGQGLEFIGWIYPGNVNAKYNEKFKGRATLTTDKSASTAYMELSSLRSEDTAVYFCAIKGGNYDWGQGTLVTVSS
VL: DVVMTQSPLSLPVTLGQPASISCQSSQSLLDSDGKTYLNWLQQRPGQSPRRLIYLVSKLGSGVPDRFSGSGSGTDFTLKISRVEAEDVGVYYCWQGTHFPRTFGGGTKLEIK
notes: Humanized; human IgG1 with LALA mutations; also called H4K2 (humanized 10A4)
B6: 10A4-H2K1-IgG1-LALA (antibody, V domains shown)
VH: QVQLVQSGAEVKKPGASVKISCKASGYTFTSYYIHWVRQAPGQRLEFIGWIYPGNVNAKYNEKFKGRATITTDKSASTAYMELSSLRSEDTAVYYCAIKGGNYDWGQGTLVTVSS
VL: DVVMTQSPLSLPVTLGQPASISCQSSQSLLDSDGKTYLNWLQQRPGQSPRRLIYLVSKLGSGVPDRFSGSGSGTDFTLKISRVEAEDVGVYYCWQGTHFPRTFGGGTKVEIK
notes: Humanized; human IgG1 with LALA mutations; also called H2K1 (humanized 10A4)

Tests used:
[1] = molecular target: T1, human CD3e (T-cell surface glycoprotein CD3 epsilon chain) (human, UniProt P07766 23-207); test: cell-based or functional assay
[2] = molecular target: T2, Histidine-tagged human CD3e protein (human, UniProt P07766 23-126); test: SPR (Biacore), human CD3e
T2 construct: also called hCD3e-His; not shown: His tag

[3] = molecular target: T3, Cynomolgus CD3 epsilon Protein, His Tag (Acrobiosystems, Cat #CDE-05226) (cynomolgus (Macaca fascicularis), UniProt Q95LI5 22-117); test: SPR (Biacore), cynomolgus CD3e His tag
T3 construct: also called monkey CD3e; not shown: His tag
T3 sequence: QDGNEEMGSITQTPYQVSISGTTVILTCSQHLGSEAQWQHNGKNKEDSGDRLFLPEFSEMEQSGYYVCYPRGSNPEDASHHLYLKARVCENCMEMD
Method: The binding affinity of the anti-hCD3e antibodies with monkey CD3e (Cynomolgus CD3 epsilon Protein (SEQ ID NO: 39 AA Gln 22-Asp 117), His Tag, Acrobiosystems, Cat #CDE-05226) were also measured using surface plasmon resonance (SPR) using Biacore (Biacore, INC, Piscataway N.J.) by the methods as described in the examples.

[4] = molecular target: T1, human CD3e (T-cell surface glycoprotein …); test: flow cytometry, human PBMC, antibody 1 ug/mL, anti-human IgG Fc-Alexa Fluor647 (1:500), anti-hTcRβ-PerCP (1:30)
Method: (§1) PBMC cells were collected from a human subject. After being thawed, the cells were cultured for 3-4 hours. The medium was then discarded, and the cells were resuspended in phosphate-buffered saline (PBS). The cell concentration was then adjusted to 2×10⁶/25 μl PBS.
(§2) A 96-well plate was prepared. 25 ul of cell suspension was added to each well. […] The cells and the antibodies were incubated. After centrifuge, the residues were discarded. The samples were washed again. 25 ul of PBS was then added to each well to resuspend cells.
(§3) Anti-human IgG Fc-Alexa Fluror647 (1:500) and anit-hTcRβ PerCP (1:30) were then added to each well. The cells and the antibodies were incubated and then the cells were washed again by PBS. 300 ul of PBS was then added to each well to resuspend the cells. FACS was performed.

[5] = molecular target: T1, human CD3e (T-cell surface glycoprotein …); test: flow cytometry, human PBMC, antibody 0.1 ug/mL, anti-human IgG Fc-Alexa Fluor647 (1:500), anti-hTcRβ-PerCP (1:30)
Method: as §1, §2, §3

[6] = molecular target: T1, human CD3e (T-cell surface glycoprotein …); test: flow cytometry, human PBMC, antibody 0.01 ug/mL, anti-human IgG Fc-Alexa Fluor647 (1:500), anti-hTcRβ-PerCP (1:30)
Method: as §1, §2, §3

[7] = molecular target: T4, monkey CD3e (Macaca fascicularis) on PBMC (Macaca fascicularis, UniProt Q95LI5 22-198); test: flow cytometry, Macaca fascicularis PBMC, antibody concentration not given, anti-human IgG Fc-Alexa Fluor647 (1:500), anti-hTcRβ-PerCP (1:30)
T4 construct: Target on PBMC from Macaca fascicularis; also called mfCD3e; monkey PBMC
Method: A 96-well plate was prepared. 25 ul of cell suspension was added to each well. Anti-hCD3 antibodies were added to the 96-well plate. The cells and the antibodies were incubated for 15 minutes at 4° C. 185 ul PBS was then added to each well. After centrifuge at 2000 rpm for 5 minutes, the medium was discarded. The samples were washed again. 25 ul of PBS was then added to resuspend cells.
Anti-human IgG Fc-Alexa Fluror647 (1:500) and anti-hTcRβ PerCP (1:30) were then added to each well. The cells and the antibodies were incubated for 15 minutes at 4° C. 185 ul PBS was then added to each well. After centrifuge, the residues were discarded. The samples were washed again. 25 ul of PBS was then added to resuspend cells. […] In contrast, anti-hTcRβ PerCP cannot bind to monkey PBMC.

| Binder | EC50, luciferase of Jurkat-Luc-NFAT cells; antibody from supernatant [1] [mg/L] | EC50, luciferase of Jurkat-Luc-NFAT cells; purified antibody [1] [mg/L] | Kd [2] [nM] | koff [2] [s⁻¹] | kon [2] [M⁻¹ s⁻¹] | Kd [3] [nM] | koff [3] [s⁻¹] | kon [3] [M⁻¹ s⁻¹] | upper left quadrant, percent of cells AF647+ / hTcRβ-PerCP- [4] [%] | upper right quadrant, percent of cells AF647+ / hTcRβ-PerCP+ [4] [%] | upper left quadrant, percent of cells AF647+ / hTcRβ-PerCP- [5] [%] | upper right quadrant, percent of cells AF647+ / hTcRβ-PerCP+ [5] [%] | upper left quadrant, percent of cells AF647+ / hTcRβ-PerCP- [6] [%] | upper right quadrant, percent of cells AF647+ / hTcRβ-PerCP+ [6] [%] | upper left quadrant, percent of cells AF647+ / hTcRβ-PerCP- [7] [%] | upper right quadrant, percent of cells AF647+ / hTcRβ-PerCP+ [7] [%] |
| --- | --- | --- | --- | --- | --- | --- | --- | --- | --- | --- | --- | --- | --- | --- | --- | --- |
| B1 | 0.294 | 0.524 | 1.86 | 0.000105 | 56300 | 13.2 | 0.000597 | 45200 | 11.9 | 77.6 | 9.8 | 50.7 | 2.69 | 10.8 | 48.4 | 2.33 |
| B2 | 0.393 | 0.583 | 2.21 | 0.000133 | 60200 | 11.8 | 0.000508 | 43100 | 11 | 79.2 | 10.2 | 56.2 | 2.67 | 16.6 | 46 | 1.54 |
| B3 | 0.416 | 0.472 | 1.38 | 8.85e-05 | 63900 | 9.12 | 0.000497 | 54500 | 14.9 | 74.2 | 7.13 | 45.6 | 2.8 | 14.5 | 51.1 | 2.59 |
| B4 | 0.477 | – | 1.05 | 6.33e-05 | 60300 | – | – | – | 11.5 | 76.6 | 11 | 54.4 | 2.68 | 12.5 | 82.7 | 0.225 |
| B5 | 0.253 | – | 1.6 | 0.000103 | 64100 | – | – | – | 15 | 74.4 | 8.54 | 57.1 | 2.25 | 16 | 44.9 | 1.49 |
| B6 | 0.266 | 0.313 | 1.84 | 0.000111 | 60500 | 4.66 | 0.000261 | 55900 | 11.6 | 76.8 | 10.3 | 59.4 | 2.67 | 14.8 | 49.4 | 2.32 |
